US20110104163A1 (US Dept. of Health and Human Services, published 2011)

Key:
[1] = biological target: T1, single-chain fusion protein gp120Bal-CD4 (HIV-1 isolate Bal, UniProt P01730 26-208); assay: ELISA, serially diluted m36 on coated antigen, anti-FLAG detection
T1 construct: Gift from T. Fouts; Coated on ELISA plates; also called gp120-CD4; Bal gp120-CD4; not shown: junction or linker between gp120 and CD4 not described (gift, Fouts et al. 2000)

[2] = biological target: T1, single-chain fusion protein gp120Bal-CD4; assay: ELISA, soluble VH on coated gp120-CD4
soluble CD4 = biological target: T2, soluble CD4 (UniProt P01730 26-396, limits assumed); assay: ELISA, plate coated with 1 µg/ml antigen, m36 detected with HRP anti-FLAG
T2 construct: also called sCD4

bovine serum albumin = biological target: T3, bovine serum albumin (bovine, UniProt P02769 25-607); assay: as above
T3 construct: also called BSA
T3 sequence (P02769 25-607 limits assumed): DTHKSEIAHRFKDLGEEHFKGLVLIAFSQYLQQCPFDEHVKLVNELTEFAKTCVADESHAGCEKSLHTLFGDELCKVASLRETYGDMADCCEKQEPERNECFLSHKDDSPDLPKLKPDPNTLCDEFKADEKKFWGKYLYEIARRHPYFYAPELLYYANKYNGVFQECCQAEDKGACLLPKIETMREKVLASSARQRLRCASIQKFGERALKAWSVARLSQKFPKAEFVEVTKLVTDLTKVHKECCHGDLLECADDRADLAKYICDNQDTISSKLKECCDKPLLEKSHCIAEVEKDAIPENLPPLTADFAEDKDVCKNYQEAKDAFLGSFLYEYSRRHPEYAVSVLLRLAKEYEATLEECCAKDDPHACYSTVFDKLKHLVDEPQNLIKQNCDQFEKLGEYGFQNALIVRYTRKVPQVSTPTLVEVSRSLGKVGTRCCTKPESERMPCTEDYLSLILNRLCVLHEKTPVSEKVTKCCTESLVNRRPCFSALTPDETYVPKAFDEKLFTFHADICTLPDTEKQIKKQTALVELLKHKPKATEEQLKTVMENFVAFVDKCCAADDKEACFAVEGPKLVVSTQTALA

B1: m36 (VHH)
VHH: QVQLVQSGGGLVQPGGSLRLSCAASAFDFSDYEMSWVRQAPGKGLEWIGEINDSGNTIYNPSLKSRVTISRDNSKNTLYLQMNTLRAEDTAIYYCAIYGGNSGGEYWGQGTLVTVSS
notes: Human VH domain antibody, monomeric, made in E. coli with His and FLAG tags; also called b5; dAb m36
[1]
  EC50: ~2.5 nM
[2]
  EC50: 0.04 µg/mL
Soluble CD4
  binding result: no binding (tested: 10 µg/ml)
Bovine serum albumin
  binding result: no binding (tested: 10 µg/ml)
